Assay results: the supplement of paper PMC9170038

Test system: MS2 coat protein
Experiment: apparent KD of MS2 coat protein; designed switch direction (-1 OFF switch, 1 ON switch): -1; higher = weaker reporter binding
Summary of the method: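 SNAP-549-labelled MS2 coat protein was titrated, doubling from 0.7 or 1.5 nM to 3 µM, over designed RNA switches transcribed on Illumina chips by stalled E. coli RNA polymerase. Runs were done without input, with 200 uM small-molecule ligand, or with an oligonucleotide input. Apparent KD is the per-design median over clusters of curve-fitted normalised fluorescence.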

[1] = Eterna round: R95, input ligand: microRNA oligo, concentration not stated
[2] = Eterna round: R95, input ligand: FMN 200 uM
[3] = Eterna round: R95, input ligand: none

| Sequence | apparent KD of MS2 coat protein [1] [nM] | apparent KD of MS2 coat protein [2] [nM] | apparent KD of MS2 coat protein [3] [nM] | apparent KD of MS2 coat protein (input ligand: FMN 200 uM) [nM] | apparent KD of MS2 coat protein (input ligand: none) [nM] |
| --- | --- | --- | --- | --- | --- |
| AAGGUGUUAGGAUAUCGGAGUUUGAGGCAGACGGGAAUUUUCGAGAAGGAACAUGAGGAUCACCCAUGUAGUAU [JR_Exclu4_Sub039] (puzzle: Exclusion 4) | 21.6 |  |  |  |  |
| AAGUACCGUCACGAAAGUGAUGGUACAACAAGCAAAUGUACAUGAGGAUCACCCAUGUCCUCGAUUGCUCGUCUUAU [Sensor 3 - 61] (puzzle: Sensor v3, turn-off variant 2) | 114 | 77.2 | 93.6 |  |  |
| AAGUACCGUCACGAAAGUGAUGGUACAACAAGCAUGUAAACAUGAGGAUCACCCAUGUCCUCAAAUGCUCGUCUUAU [Sensor 3 - 62] (puzzle: Sensor v3, turn-off variant 2) | 2020 | 732 | 776 |  |  |
| AAGUACCGUCACGAAAGUGAUGGUACAGCAAGCAAAUGUACAUGAGGAUCACCCAUGUCCUCAAUUGCUCGUCUUAU [Sensor 3 - 58] (puzzle: Sensor v3, turn-off variant 2) | 181 | 81.7 | 87.4 |  |  |
| AAGUACCGUCACGAUAGUGAUGGUACAACAAGCAGUGAAACAUGAGGAUCACCCAUGUCCUCAGUUGCUCGUCUUAU [Sensor 3 - 79] (puzzle: Sensor v3, turn-off variant 2) | 492 | 196 | 195 |  |  |
| AAGUACCGUCACGAUAGUGAUGGUACAACAAGCAUGUAAACAUGAGGAUCACCCAUGUCCUCGAUUGCUCGUCUUAU [Sensor 3 - 67] (puzzle: Sensor v3, turn-off variant 2) | 601 | 527 | 537 |  |  |
| AAGUACCGUCACGAUAGUGAUGGUACAACAAGUAAAUGUACAUGAGGAUCACCCAUGUCCUCUUUUGCUCGUCUUAU [Sensor 3 - 91] (puzzle: Sensor v3, turn-off variant 2) | 33 | 144 | 166 |  |  |
| AAGUACCGUCACGAUAGUGAUGGUACAACAAGUAAGUGAACAUGAGGAUCACCCAUGUCCUCUUUUGCUCGUCUUAU [Sensor 3 - 90] (puzzle: Sensor v3, turn-off variant 2) | 18.4 | 309 | 334 |  |  |
| AAGUACCGUCACGAUAGUGAUGGUACAACAGGCAAAUGUACAUGAGGAUCACCCAUGUCCUCUUUUGCUCGUCUUAU [Sensor 3 - 99] (puzzle: Sensor v3, turn-off variant 2) | 31 | 48.9 | 54.7 |  |  |
| AAGUACCGUCACGAUAGUGAUGGUACAACAGGUAGUGAAACAUGAGGAUCACCCAUGUCCUCAAUUGCUCGUCUUAU [Sensor 3 - 84] (puzzle: Sensor v3, turn-off variant 2) | 179 | 773 | 716 |  |  |
| AAGUACCGUCACGAUAGUGAUGGUACAACAUGUAGUGAAACAUGAGGAUCACCCAUGUCCUCAAUUGCUCGUCUUAU [Sensor 3 - 83] (puzzle: Sensor v3, turn-off variant 2) | 460 | 1400 | 1260 |  |  |
| AAGUAGUGUGUGAGGAUAUUGGUGGAAUGACACAUUAAGAAGGCACAUGAGGAUCACCCAUGUGGGUAAACACG [Brourd's EX4 #22] (Eterna round: R97, puzzle: Brourd's mod of Exclusion 4) |  |  |  | 90 | 33.1 |
| AAGUAGUGUGUGAGGAUAUUGGUGGAAUGACACAUUAAGAAGGCACAUGAGGAUCACCCAUGUGGGUAGACACG [Brourd's EX4 #21] (Eterna round: R97, puzzle: Brourd's mod of Exclusion 4) |  |  |  | 335 | 27.8 |
| AAGUAUAGAGGAUAUAGUAAGUACUACAUGAGGAUCACCCAUGUUCUUCAUUACGUAUUUCUAGAAGGCUGAUAAA [EX-5 Malc#25] (puzzle: Exclusion 5) | 369 |  |  |  |  |
| AAGUAUAGAGGAUAUAGUAGUUACAACAUGAGGAUCACCCAUGUUCUUCAUAGCGUAGAUCUAGAAGGCUGAUAAA [EX-5 Malc#30] (puzzle: Exclusion 5) | 110 | 265 | 119 |  |  |
| AAGUAUAGAGGAUAUAGUGAGUACUACAUGAGGAUCACCCAUGUUCUUCAAAACGUAUUUCUAGAAGGCUGAUAAA [EX-5 Malc#21] (puzzle: Exclusion 5) | 47.8 | 110 | 59.1 |  |  |
